Patent US7449185 (Daiichi Sankyo, dated 2008)

Columns and labels:
[1] = biological target: T1, osteoclastogenesis inhibitory factor (OCIF), recombinant, monomer or dimer type not specified at the place of … (human, UniProt O00300 22-401, 125I on tyrosine residues where used as 125I-labeled OCIF (Iodogen method)); assay: Scatchard plot of labeled OCIF on cell membrane (told in the general description)
T1 construct: Secreted protein, about 60 kDa as monomer and 120 kDa as dimer; also called recombinant OCIF
T1 sequence (looked up): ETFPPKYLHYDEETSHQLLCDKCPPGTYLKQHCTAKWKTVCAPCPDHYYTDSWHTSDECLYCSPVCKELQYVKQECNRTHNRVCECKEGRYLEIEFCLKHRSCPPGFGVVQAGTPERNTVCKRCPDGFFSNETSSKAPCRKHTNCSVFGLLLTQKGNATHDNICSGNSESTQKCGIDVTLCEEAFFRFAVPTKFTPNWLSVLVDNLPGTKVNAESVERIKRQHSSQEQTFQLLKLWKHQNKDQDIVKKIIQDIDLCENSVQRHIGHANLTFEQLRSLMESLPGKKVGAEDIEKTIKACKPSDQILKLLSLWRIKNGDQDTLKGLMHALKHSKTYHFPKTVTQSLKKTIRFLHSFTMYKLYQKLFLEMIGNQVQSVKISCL

[2] = biological target: T2, OCIF, monomer type (60 kDa) (human, UniProt O00300 22-401, limits assumed, 125I on tyrosine residues (Iodogen method)); assay: Scatchard plot of 125I-OCIF binding to ST2 cells (passage about 10) cultured with vitamin D3 and dexamethasone
T2 construct: Monomer type of rOCIF, 60 kDa; also called monomer-form OCIF
T2 sequence (looked up): T1 sequence (looked up)
Protocol: Solutions for measuring non-specific binding were prepared by further adding 400-fold concentration of monomer-form OCIF to these solutions. […] The results were subjected to Scatchard Plot analysis to determine the dissociation constant of OCIF and OCIF-binding protein and the number (site) of OCIF-binding protein per a ST2 cell. […] Based on the finding in Example 5(1) that osteoclasts-formation supported by the ST2 cells with passage number about 40 was more extensive than that with passage number about 10, the number (the site) of the protein of the present invention expressed on the ST2 cell with a passage number about 40 was assessed.

- Kd [2]: 0.28 nM
B1: natural OCIF-binding protein (mouse OBM) on mouse osteoblastic stromal ST2 cells cultured with active-form vitamin D3 and dexamethasone (ligand)
chain: MRRASRDYGKYLRSSEEMGSGPGVPHEGPLHPAPSAPAPAPPPAASRSMFLALLGLGLGQVVCSIALFLYFRAQMDPNRISEDSTHCFYRILRLHENAGLQDSTLESEDTLPDSCRRMKQAFQGAVQKELQHIVGPQRFSGAPAMMEGSWLDVAQRGKPEAQPFAHLTINAASIPSGSHKVTLSSWYHDRGWAKISNMTLSNGKLRVNQDGFYYLYANICFRHHETSGSVPTDYLQLMVYVVKTSIKIPSSHNLMKGGSTKNWSGNSEFHFYSINVGGFFKLRAGEEISIQVSNPSLLDPDQDATYFGAFKVQDID
notes: also called the protein of the present invention; OBM on ST2 cells
- Kd [1]: 0.1 to 0.5 nM
